The numbers were not newly measured in patent US20090048308A1, “VLA-4 Antagonists” (priority 2005, published 2009), which cites them from elsewhere.

A value given as a limit tells only on which side of the number the result lay.

The series deals with T1, VLA-4 (Homo sapiens, UniProt P13612).
T1 construct: host or cells: VLA-4-bearing blood cells of trial subjects (inferred)
Conditions: early clinical trials.

For the substance “natalizumab: humanized monoclonal antibody against α4 (Tysabri®, Elan/Biogen)”, the receptor occupancy is given as above 80%.
